Measurements reported in article PMC6656775, “Soluble and membrane-bound protein carrier mediate direct copper transport to the ethylene receptor family” (Scientific Reports, 2019).

B1: ETR1^306–738, purified recombinant (domain or fragment, A. thaliana, UniProt P49333 306-738, looked up)
chain: ALSHAAILEESMRARDLLMEQNVALDLARREAETAIRARNDFLAVMNHEMRTPMHAIIALSSLLQETELTPEQRLMVETILKSSNLLATLMNDVLDLSRLEDGSLQLELGTFNLHTLFREVLNLIKPIAVVKKLPITLNLAPDLPEFVVGDEKRLMQIILNIVGNAVKFSKQGSISVTALVTKSDTRAADFFVVPTGSHFYLRVKVKDSGAGINPQDIPKIFTKFAQTQSLATRSSGGSGLGLAISKRFVNLMEGNIWIESDGLGKGCTAIFDVKLGISERSNESKQSGIPKVPAIPRHSNFTGLKVLVMDENGVSRMVTKGLLVHLGCEVTTVSSNEECLRVVSHEHKVVFMDVCMPGVENYQIALRIHEKFTKQRHQRPLLVALSGNTDKSTKEKCMSFGLDGVLLKPVSLDNIRDVLSDLLEPRVLYEGM
notes: also called extra-membranous part of ETR1; soluble extra-membranous part of the receptor
B3: ETR1^1–157, purified recombinant (domain or fragment, A. thaliana, UniProt P49333 1-157, looked up)
chain: MEVCNCIEPQWPADELLMKYQYISDFFIAIAYFSIPLELIYFVKKSAVFPYRWVLVQFGAFIVLCGATHLINLWTFTTHSRTVALVMTTAKVLTAVVSCATALMLVHIIPDLLSVKTRELFLKNKAAELDREMGLIRTQEETGRHVRMLTHEIRSTL
notes: In detergent (FosCholine-16); also called purified ETR1
B4: NterRAN1 (amino acids 1–298), purified recombinant (domain or fragment, A. thaliana, UniProt Q9S7J8 1-298, looked up)
chain: MAPSRRDLQLTPVTGGSSSQISDMEEVGLLDSYHNEANADDILTKIEEGRDVSGLRKIQVGVTGMTCAACSNSVEAALMNVNGVFKASVALLQNRADVVFDPNLVKEEDIKEAIEDAGFEAEILAEEQTQATLVGQFTIGGMTCAACVNSVEGILRDLPGVKRAVVALSTSLGEVEYDPNVINKDDIVNAIEDAGFEGSLVQSNQQDKLVLRVDGILNELDAQVLEGILTRLNGVRQFRLDRISGELEVVFDPEVVSSRSLVDGIEEDGFGKFKLRVMSPYERLSSKDTGEASNMFRR
modifications: AlexaFluor488-NHS label
notes: RAN1 (HMA7), Arabidopsis thaliana, cytosolic N-terminal region, amino acids 1-298; source: E. coli BL21 (DE3) or C43 (DE3), pETEV16b, purified (HisTrap, TEV, Superdex200)

What was measured:
[1] = target: T1, CterRAN1 (amino acids 299–1001), purified recombinant (A. thaliana, UniProt Q9S7J8 299-1001, AlexaFluor488-NHS label); experiment: MST; AlexaFluor488-labelled RAN1, CterRAN1, NterRAN1, ATX1, CCH or CCHΔ (50 nM) in buffer D (50 mM Tris, 250 mM NaCl, 0.015% FosCholine16, 2.5 mM DTT, 20% glycerol, pH 8.5); ETR1^306–738 titrated 37 µM to 1.1 nM; triplicates; conditions: both partners purified
T1 construct: RAN1 (HMA7), Arabidopsis thaliana, amino acids 299-1001 (transmembrane copper transport site); also called CterRAN1 mutant; source: E. coli BL21 (DE3) or C43 (DE3), pETEV16b, solubilised with DDM, purified (HisTrap, TEV, Superdex200)
T1 sequence (looked up): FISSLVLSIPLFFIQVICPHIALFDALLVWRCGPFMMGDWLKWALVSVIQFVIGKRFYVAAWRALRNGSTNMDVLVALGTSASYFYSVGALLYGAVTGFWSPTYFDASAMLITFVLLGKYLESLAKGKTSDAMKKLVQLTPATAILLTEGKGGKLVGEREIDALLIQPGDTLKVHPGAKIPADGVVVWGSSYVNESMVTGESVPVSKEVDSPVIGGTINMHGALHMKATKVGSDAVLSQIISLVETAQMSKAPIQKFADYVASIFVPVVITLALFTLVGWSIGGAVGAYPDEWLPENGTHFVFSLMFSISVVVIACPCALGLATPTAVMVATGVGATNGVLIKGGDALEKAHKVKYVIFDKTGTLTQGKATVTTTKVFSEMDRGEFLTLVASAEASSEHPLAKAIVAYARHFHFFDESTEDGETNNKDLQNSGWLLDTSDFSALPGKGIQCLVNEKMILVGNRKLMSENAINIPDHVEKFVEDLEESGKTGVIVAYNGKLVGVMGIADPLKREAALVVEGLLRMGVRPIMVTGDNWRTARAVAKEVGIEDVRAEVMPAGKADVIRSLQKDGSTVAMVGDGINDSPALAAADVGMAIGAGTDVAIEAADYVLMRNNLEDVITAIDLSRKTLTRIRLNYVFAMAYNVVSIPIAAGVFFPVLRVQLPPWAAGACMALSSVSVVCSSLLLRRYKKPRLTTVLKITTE

[2] = target: T2, RAN1, full-length, purified recombinant (A. thaliana, UniProt Q9S7J8 1-1001, AlexaFluor488-NHS label); experiment: as above; conditions: both partners purified
T2 construct: P1B-type copper ATPase RAN1 (HMA7), Arabidopsis thaliana, full-length; also called full-length RAN1; HMA7; source: E. coli BL21 (DE3) or C43 (DE3), pETEV16b, solubilised with DDM, purified (HisTrap, TEV, Superdex200)
T2 sequence (looked up): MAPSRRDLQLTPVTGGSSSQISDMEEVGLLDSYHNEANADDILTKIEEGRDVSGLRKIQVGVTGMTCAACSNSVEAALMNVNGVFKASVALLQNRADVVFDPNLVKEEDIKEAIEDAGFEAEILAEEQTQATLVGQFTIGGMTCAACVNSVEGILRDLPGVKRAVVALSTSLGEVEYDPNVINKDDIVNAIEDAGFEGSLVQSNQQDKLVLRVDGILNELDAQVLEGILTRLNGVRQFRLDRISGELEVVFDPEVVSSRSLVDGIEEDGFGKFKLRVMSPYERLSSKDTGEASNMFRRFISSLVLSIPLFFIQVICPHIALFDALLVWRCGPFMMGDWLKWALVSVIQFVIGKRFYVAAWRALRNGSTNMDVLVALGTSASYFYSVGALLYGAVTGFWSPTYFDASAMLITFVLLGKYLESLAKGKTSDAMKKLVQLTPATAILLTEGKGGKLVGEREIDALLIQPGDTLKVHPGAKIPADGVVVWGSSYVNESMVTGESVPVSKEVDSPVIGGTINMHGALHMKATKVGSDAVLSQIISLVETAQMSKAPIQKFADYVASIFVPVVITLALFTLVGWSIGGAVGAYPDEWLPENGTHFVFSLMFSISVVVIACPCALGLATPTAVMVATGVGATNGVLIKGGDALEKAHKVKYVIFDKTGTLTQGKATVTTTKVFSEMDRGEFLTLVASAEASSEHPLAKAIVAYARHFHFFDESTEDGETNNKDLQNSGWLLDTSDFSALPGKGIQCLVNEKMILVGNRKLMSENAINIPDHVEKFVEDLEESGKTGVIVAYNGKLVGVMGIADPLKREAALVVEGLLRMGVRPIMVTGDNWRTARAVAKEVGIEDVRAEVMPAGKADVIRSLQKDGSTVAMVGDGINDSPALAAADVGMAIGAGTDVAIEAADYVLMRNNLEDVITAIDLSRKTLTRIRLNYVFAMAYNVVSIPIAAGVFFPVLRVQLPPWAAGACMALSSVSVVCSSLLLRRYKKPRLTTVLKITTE

[3] = target: T2, RAN1, full-length, purified recombinant; experiment: MST; AlexaFluor488-labelled RAN1 or CterRAN1 (15 nM, 50 mM HEPES, 300 mM NaCl, 0.1% DDM, pH 7.5) or NterRAN1 (50 nM, same buffer without DDM, 0.05% Tween20); ATX1, CCH or CCHΔ titrated 30 µM to 0.9 nM; triplicates; apparent dissociation constants; conditions: both partners purified
[4] = target: B3; experiment: MST; AlexaFluor488-labelled ATX1 (75 nM), CCH (100 nM) or CCHΔ (50 nM) in 50 mM HEPES, 300 mM NaCl, pH 7.5, 0.015% FosCholine-16, 0.05% Tween20; ETR1^1–157 titrated 7.5 µM to 0.2 nM; triplicates; apparent dissociation constants; conditions: both partners purified
[5] = target: B4; experiment: MST; AlexaFluor488-labelled RAN1 or CterRAN1 (20 nM, 50 mM HEPES, 300 mM NaCl, 0.1% DDM, pH 7.5) or NterRAN1 (40 nM, 0.05% Tween20); ETR1^1–157 titrated 10 µM to 0.3 nM in buffer with 0.015% FosCholine-16; triplicates; conditions: both partners purified
[6] = target: T2, RAN1, full-length, purified recombinant; experiment: as above; conditions: both partners purified
[7] = target: CterRAN1 (amino acids 299–1001), purified recombinant (A. thaliana) (UniProt Q9S7J8); experiment: as above
[8] = target: B1; experiment: MST; AlexaFluor488-labelled RAN1, CterRAN1, NterRAN1, ATX1, CCH or CCHΔ (50 nM) in buffer D (50 mM Tris, 250 mM NaCl, 0.015% FosCholine16, 2.5 mM DTT, 20% glycerol, pH 8.5); ETR1^306–738 titrated 37 µM to 1.1 nM; triplicates; conditions: both partners purified

Binder: B1
- Kd [1]: 211 ± 38 nM
- Kd [2]: 71 ± 17 nM

B2: ATX1, purified recombinant (natural protein, A. thaliana, UniProt Q94BT9 1-76, looked up)
chain: MSQTVVLRVAMTCEGCVGAVKRVLGKMEGVESFDVDIKEQKVTVKGNVQPDAVLQTVTKTGKKTAFWEAEGETAKA
modifications: AlexaFluor488-NHS label where it was the labelled partner (with ETR1^1–157 and ETR1^306–738); unlabelled where titrated
notes: soluble copper chaperone ATX1, Arabidopsis thaliana; Preloaded with Cu(I) in the copper transfer assay; also called Cu(I)-ATX1; source: E. coli BL21 (DE3) or C43 (DE3), pETEV16b, purified (HisTrap, TEV, Superdex200)
- Kd [3]: 41 ± 11 nM
- Kd [4]: 313 ± 74 nM

Binder: B3
- Kd [5]: 205 ± 35 nM
- Kd [6]: 33 ± 8 nM
- Kd [7]: 2610 nM

Binder: B4
- Kd [8]: 3480 ± 315 nM

B5: CCHΔ, deletion mutant of CCH lacking the C-terminal extension, purified recombinant (domain or fragment)
chain: MAQTVVLKVGMSCQGCVGAVNRVLGKMEGVESFDIDIKEQKVTVKGNVEPEAVFQTVSKTGKKTSYWPVEAEAEPK
modifications: AlexaFluor488-NHS label where it was the labelled partner (with ETR1^1–157 and ETR1^306–738); unlabelled where titrated
- Kd [3]: 77 ± 24 nM
- Kd [4]: 376 ± 93 nM

B6: CCH, full-length, purified recombinant (natural protein, A. thaliana, UniProt O82089 1-121, looked up)
chain: MAQTVVLKVGMSCQGCVGAVNRVLGKMEGVESFDIDIKEQKVTVKGNVEPEAVFQTVSKTGKKTSYWPVEAEAEPKAEADPKVETVTETKTEAETKTEAKVDAKADVEPKAAEAETKPSQV
modifications: AlexaFluor488-NHS label where it was the labelled partner (with ETR1^1–157 and ETR1^306–738); unlabelled where titrated
notes: soluble copper chaperone CCH, Arabidopsis thaliana, full-length; Preloaded with Cu(I) in the copper transfer assay; also called CCH wildtype; full-length CCH; source: E. coli BL21 (DE3) or C43 (DE3), pETEV16b, purified (HisTrap, TEV, Superdex200)
- Kd [3]: 55 ± 13 nM
- Kd [4]: 526 ± 101 nM
